Test results reported in article PMC4073121.

Assays:
[1] = target: bfloGFPa1, green fluorescent protein of Amphioxus (Branchiostoma floridae) (Branchiostoma floridae); experiment: SEC; size exclusion chromatography of the purified protein (Fig. S1); column and buffer not told
[2] = target: bfloGFPc1, green fluorescent protein of Amphioxus (Branchiostoma floridae) (Branchiostoma floridae); experiment: as above

Row | stoichiometry N [1] | stoichiometry N [2] | Substance
1 | 2 | – | bfloGFPa1, green fluorescent protein of Amphioxus (Branchiostoma floridae) (natural protein)
2 | – | 2 | bfloGFPc1, green fluorescent protein of Amphioxus (Branchiostoma floridae) (natural protein)
